Changes are numbered by the printed parent chain.
T1: GDF15 Fc (UniProt Q99988 197-308, limits assumed)
T1 construct: species not given; not shown: Fc part of the fusion
T1 sequence (looked up): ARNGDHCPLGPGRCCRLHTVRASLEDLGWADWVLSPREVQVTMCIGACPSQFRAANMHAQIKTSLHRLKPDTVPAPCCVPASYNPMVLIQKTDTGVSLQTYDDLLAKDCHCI

T2: BMP9 (UniProt Q9UK05 320-429)
T2 sequence (looked up): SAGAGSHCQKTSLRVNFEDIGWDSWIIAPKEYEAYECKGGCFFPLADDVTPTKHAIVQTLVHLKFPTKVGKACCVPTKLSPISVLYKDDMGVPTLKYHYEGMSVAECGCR

T3: Activin B (UniProt P09529 293-407)
T3 sequence (looked up): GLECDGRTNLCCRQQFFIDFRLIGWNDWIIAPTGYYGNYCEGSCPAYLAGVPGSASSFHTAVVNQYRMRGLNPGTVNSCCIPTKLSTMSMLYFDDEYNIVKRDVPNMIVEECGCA

T4: human GDNF (human, UniProt P39905 78-211, limits assumed)
T4 sequence (looked up): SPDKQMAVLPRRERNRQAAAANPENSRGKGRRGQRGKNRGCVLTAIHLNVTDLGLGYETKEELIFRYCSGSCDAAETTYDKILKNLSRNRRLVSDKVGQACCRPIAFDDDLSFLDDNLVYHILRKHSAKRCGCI

T5: BMP10 (UniProt O95393 317-424)
T5 sequence (looked up): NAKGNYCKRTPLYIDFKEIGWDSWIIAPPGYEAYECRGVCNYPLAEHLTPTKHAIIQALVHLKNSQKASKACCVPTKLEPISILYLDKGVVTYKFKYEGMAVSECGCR

T6: human GDF10 (human, UniProt P55107 369-478)
T6 sequence (looked up): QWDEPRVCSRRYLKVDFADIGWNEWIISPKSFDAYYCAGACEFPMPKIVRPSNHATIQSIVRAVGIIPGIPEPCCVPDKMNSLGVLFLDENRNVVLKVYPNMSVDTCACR

B1: Antibody A (Clone A), IgG (antibody, V domains shown)
VH: QVQLVQSGAEVKKPGASVKVSCKASGYTFTGYYMHWVRQAPGQGLEWMGSINPSSGGTNYAQKFQGRVTMTTDTSTSTAYMELRSLRSDDTAVYYCARARDIAAAGLGAFDYWGQGTLVTVSS
VL: EIVLTQSPGTLSLSPGERATLSCRASQSVRSSYLAWYQQKPGQAPRLLIYGASSRATGIPDRFSGSGSGTDFTLTISRLEPEDFAVYYCQQYVSYPRTFGGGTKVEIKR
notes: IgG
B2: Antibody F (Clone F), IgG (antibody, V domains shown)
VH: B1 VH with Y33H, M34I, A40V, S50V, N52S, P53A, S54Y, G57D, F64L, A105L
VL: EIVLTQSPATLSVSPGERATLSCRASQSVSSNLAWYQQKPGQAPRLLIYGASDRATGIPARFSGSGSGTEFTLTISSLQSEDFAVYYCIQYSNYPRTFGGGTKVEIKR
notes: IgG
B3: Antibody H (Clone H), IgG (antibody, V domains shown)
VH: B1 VH with Y33H, M34I, S50H, N52S, P53A, S54Y, G57T, F64L
VL: B1 VL with V93S, S94N
notes: IgG
B4: Antibody G (Clone G), IgG (antibody, V domains shown)
VH: B1 VH with G31S, M34I, S50A, N52Y, P53A, S54Y, G57D, F64L
VL: B1 VL with V93S, S94N
notes: IgG
B5: Antibody C (Clone C), IgG (antibody, V domains shown)
VH: B1 VH with T30P, Y33H, S50V, G57D, T72R, T76I, R84S, S85R, A105L
VL: B1 VL with R30S, T57G, S94A
notes: IgG
B6: Antibody B (Clone B), IgG (antibody, V domains shown)
VH: B1 VH with T30I, Y33D, S50V, T72R, T76I, R84S, S85R, A105L
VL: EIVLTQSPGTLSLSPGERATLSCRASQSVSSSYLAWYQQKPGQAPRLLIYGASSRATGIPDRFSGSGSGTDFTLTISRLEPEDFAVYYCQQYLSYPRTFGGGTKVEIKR
notes: IgG
B7: Antibody D (Clone D), IgG (antibody, V domains shown)
VH: B1 VH with T30F, Y33S, S50V, G57D, T72R, T76I, R84S, S85R, A105L
VL: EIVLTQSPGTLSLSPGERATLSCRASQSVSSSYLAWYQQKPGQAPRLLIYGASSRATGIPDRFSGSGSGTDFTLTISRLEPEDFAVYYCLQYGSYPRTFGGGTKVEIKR
notes: IgG
B8: Antibody E (Clone E), IgG (antibody, V domains shown)
VH: B1 VH with T30H, Y33N, S54Y, G57Y, N59I, T72R, T76I, R84S, S85R
VL: B1 VL
notes: IgG
B9: Antibody L (Clone L), IgG (antibody, V domains shown)
VH: QVQLQESGPGLVKPSETLSLTCAVSGYSISSGYYWGWIRQPPGKGLEWIGSIYHSGSTYYNPSLKSRVTISVDTSKNQFSLKLSSVTAADTAVYYCAREAGSGYWYLSVYGMDVWGQGTTVTVSS
VL: B2 VL with D53T, I89Q, Y91S, S92D, N93D, Y94W, R96W
notes: IgG
B10: Antibody P (Clone P), IgG (antibody, V domains shown)
VH: QVQLVQSGAEVKKPGSSVKVSCKASGGTFDDYAISWVRQAPGQGLEWMGGIIPRFGIANYAQKFQGRVTITADESTSTAYMELSSLRSEDTAVYYCARPPSSGSDWGQGTLVTVSS
VL: DIQMTQSPSSVSASVGDRVTITCRASQGIDSWLAWYQQKPGKAPKLLIYAASSLQSGVPSRFSGSGSGTDFTLTISSLQPEDFATYYCQQVHSFPITFGGGTKVEIKR
notes: IgG
B11: Antibody M (Clone M), IgG (antibody, V domains shown)
VH: QLQLQESGPGLVKPSETLSLTCTVSGGSISSSDYYWGWIRQPPGKGLEWIGSIYYPANTYYNPSLKSRVTISVDTSKNQFSLKLSSVTAADTAVYYCARGYWNYGMDVWGQGTTVTVSS
VL: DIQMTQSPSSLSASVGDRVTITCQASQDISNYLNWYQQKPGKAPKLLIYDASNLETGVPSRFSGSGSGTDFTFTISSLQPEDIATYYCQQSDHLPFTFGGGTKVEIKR
notes: IgG
B12: Antibody N (Clone N), IgG (antibody, V domains shown)
VH: B11 VH with N58S
VL: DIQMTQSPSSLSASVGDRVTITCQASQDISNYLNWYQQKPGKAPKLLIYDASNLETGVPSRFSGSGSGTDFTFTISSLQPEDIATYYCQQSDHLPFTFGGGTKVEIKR
notes: IgG
B13: Antibody O (Clone O), IgG (antibody, V domains shown)
VH: QVQLVQSGAEVKKPGSSVKVSCKASGGTFSNYDINWVRQAPGQGLEWMGGIIPVFGTAAYAQKFQGRVTITADESTSTAYMELSSLRSEDTAVYYCAREARDGYRYAFQHWGQGTLVTVSS
VL: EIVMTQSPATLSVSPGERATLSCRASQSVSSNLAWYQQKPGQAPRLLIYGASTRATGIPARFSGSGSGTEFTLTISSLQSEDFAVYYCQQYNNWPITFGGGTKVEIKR
notes: IgG

These binders were tested against human GDF8 (human, UniProt O14793 267-375) (assay: BLI Octet; IgG, avid).

Binding result, no binding (tested: 100 nM):
B1
B2
B3
B4
B5
B6
B7
B8
B9
B10
B11
B12
B13

Each binder was assayed against T1, GDF15 Fc (assay: BLI Octet; IgG, avid).

Binding result, no binding (tested: 100 nM):
B1
B2
B3
B4
B5
B6
B7
B8
B9
B10
B11
B12
B13

What follows are binders tested against T2, BMP9 (assay: BLI Octet; IgG, avid).

Binding result, no binding (tested: 100 nM):
B1
B2
B3
B4
B5
B6
B7
B8
B9
B10
B11
B12
B13

The binders below were run against T3, Activin B (assay: BLI Octet; IgG, avid).

Binding result, no binding (tested: 100 nM):
B1
B4
B13

What follows are binders tested against T4, human GDNF (assay: BLI Octet; IgG, avid).

Binding result, no binding (tested: 100 nM):
B1
B2
B3
B4
B5
B6
B7
B8
B9
B10
B11
B12
B13

What follows are binders tested against human GDF11 (human, UniProt O95390 299-407) (assay: BLI Octet; IgG, avid).
human GDF11, sequence (O95390 299-407 limits assumed): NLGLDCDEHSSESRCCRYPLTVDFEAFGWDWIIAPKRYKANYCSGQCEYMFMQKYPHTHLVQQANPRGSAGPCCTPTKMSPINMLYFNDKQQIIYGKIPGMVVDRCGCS

Binding result, no binding (tested: 100 nM):
B1
B3
B4
B9
B10
B11
B12
B13

The binders below were run against T5, BMP10 (assay: BLI Octet; IgG, avid).

Binding result, no binding (tested: 100 nM):
B1
B2
B3
B4
B5
B6
B7
B8
B9
B10
B11
B12
B13

What follows are binders tested against T6, human GDF10 (assay: BLI Octet; IgG, avid).

Binding result, no binding (tested: 100 nM):
B1
B2
B3
B4
B5
B6
B7
B8
B9
B10
B11
B12
B13
